B1: protein VI with the G48C mutation, in AdV VI-G48C particles (natural protein)
chain: AFSWGSLWSGIKNFCSTVKNYGSKAWNSSTGQMLRDKLKEQNFQQKVVDGLASGISGVVDLANQAVQNKINSKLDPRPPVEEPPPAVETVSPEGRGEKRPRPDREETLVTQIDEPPSYEEALKQGLPTTRPIAPMATGVLGQHTPVTLDLPPPADTQQKPVLPGPTAVVVTRPSRASLRRAASGPRSLRPVASGNWQSTLNSIVGL
modifications: intermolecular disulfide bond between protein VI molecules (in the dimer fraction)
B2: recombinant VI114-G48C (protein VI residues 34-114 with G48C) (domain or fragment)
chain: AFSWGSLWSGIKNFCSTVKNYGSKAWNSSTGQMLRDKLKEQNFQQKVVDGLASGISGVVDLANQAVQNKINSKLDPRPPVE
modifications: intermolecular disulfide bond (in the dimer fraction)

Assays:
[1] = molecular target: the molecule itself; assay: non-reducing SDS-PAGE with gel densitometry
[2] = molecular target: the molecule itself; assay: non-reducing SDS-PAGE with immunoblot
non-reducing SDS-PAGE = molecular target: the molecule itself; assay: non-reducing SDS-PAGE

Row | Protein | ratio of monomer:dimer [1] [dimer per monomer] | stoichiometry N [2] | stoichiometry N (non-reducing SDS-PAGE)
1 | B1 | ~1.4 | 2 | –
2 | B2 | – | – | 2
